According to paper PMC7585440, “Sclerostin inhibits Wnt signaling through tandem interaction with two LRP6 ectodomains” (Nature Communications, 2020):

Columns and labels:
[1] = biological target: T1, human LRP6 E1E2 with a C-terminal 10× His tag, labeled with the dye NT-647 (human, UniProt O75581 21-630, dye NT-647 (Monolith NT Protein Labeling kit)); assay: MST; LRP6 E1E2 or E1 labeled with NT-647 at ~5 nM, unlabeled SOST proteins or peptides titrated; 20 mM Tris-Cl pH 7.0, 200 mM NaCl, 0.5 mg/ml BSA, 0.05% Tween 20; 22 °C; Monolith NT.115 Pico; conditions: both partners purified
T1 construct: Low-density lipoprotein receptor-related protein 6 (LRP6), human, ectodomains E1 and E2; the limits P21-P630 are printed for the co-expression construct; the MST construct was cloned into another vector (pAcGP67A); also called Labeled LRP6 E1E2; source: High Five insect cells (pAcGP67A), purified (Ni-NTA, HiTrapQ, SEC), no tag cleavage; not shown: His10, C-terminal, kept
T1 sequence (looked up): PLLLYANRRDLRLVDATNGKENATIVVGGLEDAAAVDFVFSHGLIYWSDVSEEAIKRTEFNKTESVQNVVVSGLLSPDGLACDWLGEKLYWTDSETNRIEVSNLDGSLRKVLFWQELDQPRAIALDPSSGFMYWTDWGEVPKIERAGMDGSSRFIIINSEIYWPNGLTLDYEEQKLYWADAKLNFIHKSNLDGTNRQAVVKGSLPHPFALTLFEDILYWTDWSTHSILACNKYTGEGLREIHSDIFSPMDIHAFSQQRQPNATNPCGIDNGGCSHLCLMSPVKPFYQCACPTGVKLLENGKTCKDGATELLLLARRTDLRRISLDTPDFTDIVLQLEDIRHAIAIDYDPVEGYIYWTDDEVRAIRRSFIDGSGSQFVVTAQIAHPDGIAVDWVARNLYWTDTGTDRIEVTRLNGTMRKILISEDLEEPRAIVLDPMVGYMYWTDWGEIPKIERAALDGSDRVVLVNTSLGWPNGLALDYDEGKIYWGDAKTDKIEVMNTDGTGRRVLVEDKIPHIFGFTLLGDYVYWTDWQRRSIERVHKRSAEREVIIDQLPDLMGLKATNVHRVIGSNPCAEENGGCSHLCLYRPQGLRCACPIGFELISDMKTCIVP

[2] = biological target: T2, human LRP6 E1E2 (P21–P630) with a C-terminal 10× His tag (human, UniProt O75581 21-630); assay: SEC; fluorescence-SEC: purified LRP6 E1E2–Smo-SOST complex injected at 1.5, 1, 0.5 or 0.1 µM on Superdex 200 Increase 10/300 GL; 20 mM Tris pH 7.0, 200 mM NaCl; intrinsic tryptophan fluorescence; approximate KD; conditions: both partners purified
T2 construct: Low-density lipoprotein receptor-related protein 6 (LRP6), human, ectodomains E1 and E2, residues P21-P630; Unlabelled form: crystal, SEC-MALS and fluorescence-SEC; An anti-His-tag antibody was used for the western blots of the fluorescence-SEC experiment; also called LRP6 ectodomains 1 and 2; source: High Five insect cells (baculovirus), secreted, purified (Ni-NTA, HiTrapQ, SEC); co-expressed …
T2 sequence (looked up): T1 sequence (looked up)

Kd [1]: 170 nM | Kd [2]: ~50 nM
B1: human WT SOST with an N-terminal His6-SUMO tag (natural protein, UniProt Q9BQB4 24-213, looked up)
chain: QGWQAFKNDATEIIPELGEYPEPPPELENNKTMNRAENGGRPPHHPFETKDVSEYSCRELHFTRYVTDGPCRSAKPVTELVCSGQCGPARLLPNAIGRGKWWRPSGPDFRCIPDRYRAQRVQLLCPGGEAPRARKVRLVASCKCKRLTRFHNQSELKDFGTEAARPQKGRKPRPRARSAKANQAELENAY
notes: Sclerostin (SOST), human, wild type; Probably residues 24-213 (the truncated constructs begin at Q24 and the protein ends at Y213); Purified WT SOST ran as a doublet that PNGase F turned into one band (N175 likely glycosylated in part); also called Smo-SOST; SOST WT; source: High Five insect cells (pAcGP67A), purified (Ni-NTA, HiTrapQ, SEC), no tag cleavage; not shown: His6, N-terminal, kept; …
